Laboratory results reported in publication PMC2877798.

Columns and labels:
[1] = target: SNT, residues 1–215 of the HsdS (specificity) subunit of EcoR124I (UniProt P10485); assay: AUC; sedimentation velocity of SNT alone at 25 μM; 30,000 rpm, 10 °C, buffer A (10 mM Tris–HCl, pH 8.0, 100 mM NaCl, 1 mM Na2EDTA), 280 nm; c(s)/c(M) analysis with SEDFIT
[2] = target: SNT, residues 1–215 of the HsdS (specificity) subunit of EcoR124I (UniProt P10485); assay: AUC; sedimentation velocity of reconstituted M.EcoR124INT at 2.6 μM; 30,000 rpm, 10 °C, buffer A, 280 nm; c(s)/c(M) analysis with SEDFIT
[3] = target: SNT, residues 1–215 of the HsdS (specificity) subunit of EcoR124I (UniProt P10485); assay: AUC; sedimentation equilibrium of reconstituted M.EcoR124INT at 2.5 to 8.8 μM; 6500 rpm and 8500 rpm, 276 nm, global fit to a single ideal species model
[4] = target: M.EcoR124INT methyltransferase (hetero-tetramer of two SNT and two M subunits) (UniProt P10485)

SNT, residues 1–215 of the HsdS (specificity) subunit of EcoR124I (from UniProt P10485 1-215) (domain or fragment)
stoichiometry N [1]: 2

B1: M subunit (HsdM) of EcoR124I (natural protein)
chain: MKMTSIQQRAELHRQIWQIANDVRGSVDGWDFKQYVLGALFYRFISENFSSYIEAGDDSICYAKLDDSVITDDIKDDAIKTKGYFIYPSQLFCNVAAKANTNDRLNADLNSIFVAIESSAYGYPSEADIKGLFADFDTTSNRLGNTVKDKNARLAAVLKGVEGLKLGDFNEHQIDLFGDAYEFLISNYAANAGKSGGEFFTPQHVSKLIAQLAMHGQTHVNKIYDPAAGSGSLLLQAKKQFDNHIIEEGFFGQEINHTTYNLARMNMFLHNINYDKFDIKLGNTLTEPHFRDEKPFDAIVSNPPYSVKWIGSDDPTLINDERFAPAGVLAPKSKADFAFVLHALNYLSAKGRAAIVCFPGIFYRGGAEQKIRQYLVDNNYVETVISLAPNLFFGTTIAVNILVLSKHKTDTNVQFIDASELFKKETNNNILTDAHIEQIMQVFASKEDVAHLAKSVAFETVVANDYNLSVSSYVEAKDNREIIDIAELNAELKTTVSKIDQLRKDIDAIVAEIEGCEVQK
stoichiometry N (M per SNT (2:2 hetero-tetramer)) [2]: 1
stoichiometry N (M per SNT (2:2 hetero-tetramer)) [3]: 1

B2: ocr (“overcome classical restriction”) protein (natural protein)
chain: MAMSNMTYNNVFDHAYEMLKENIRYDDIRDTDDLHDAIHMAADNAVPHYYADIFSVMASEGIDLEFEDSGLMPDTKDVIRILQARIYEQLTIDLWEDAEDLLNEYLEEVEEYEEDEE
inhibition of in vitro DNA methylation by M.EcoR124INT (EcoRI protection assay; 50 nM MTase, 50 nM ocr dimer incubated with the MTase before DNA, 37 °C, 10 mM MgCl2) [4]: 50%
